Test results as given in the DeepSol protein solubility set.

test: soluble on expression in E. coli; label from the status in PepcDB or PDB records

Sequence	soluble on expression in E. coli
MLVGNIVKEVLAYKKGQIQQKLSSPQAFVSSRFQEKLQSEPAKETKGTTQLAKVEDMSQPVQSTKIETVVNKPEQSIHKVEEASKPEEKAETKNVDEVQVAQKEFERRFPETKNEAADTWGLTKKYNIQKIRSSNEGKYEDIIDRVSHTYGIPKTLIQKMIEVESDFNPKTVSHAGAKGLMQLMPANVKEMGIKNPFSPAESIEGGVKELSGYLKKNNGDLVLALASYNAGPGNVRKYGGVPPFKETQGYIKKILNIDVSK	not soluble
MLNADLKQQLKQLLELMEGNVEFVASLGSDDKSKELKDLLTEITDMSPRLSLSEKSLKRTPSFSVNRPGEETGVTFAGIPLGHEFNSLVLAILQVSGRAPKEKQSIIDQIKKLEGSFHFETFISLTCQKCPDVVQALNLMSVINPNITHSMIDGAVFREESENIMAVPAVFLNGEEFGNGRMTIQDILSKLGSTADASEFENKEPYDVLIVGGGPASGSAAIYTARKGLRTGIVADRIGGQVNDTAGIENFITVKETTGSEFSSNLAAHIDQYDIDAMTGIRATDIEKTDEAIKVTLENGAVLESKTVIIATGAGWRKLNIPGEEQLINKGVAFCPHCDGPLFENKDVAVIGGGNSGVEAAIDLAGIVNHVTLFEFASELKADNVLQDRLRSLSNVDIKTNAKTTEVVGEDHVTGIRYEDMNTGEEHLLNLDGIFVQIGLLPNTSWLNDAVELNERGEIVIDRNNNTNVPGIFAAGDVTDQKNKQIIISMGAGANAALNAFDYIIRN	not soluble
MKFLSFIFLVSLCAVTSQINAQAPELPLDKIKLPPGFSISVWANVPDARTMTLGDKGTVFVGSKSAGNVYAITENAGKRQIRIIASKLKMPNGVAFHDGALYVSSVNRILRFDNIENTLDQPLPPRIITADYPKETYHGWRFIAFGPDGWLYVPVGSSCNVCETDLEHYALISRIRPDGSNYEVFAKGVRNTEGFDWHPVTKALWFTDISREWMGDNLPPDELNHASNQGLDFGFPYCHGKEVSDPKLGAKRDCNKFIPPAVELDPHVAPMGMRFYTGTMFPAEYHNGIFIAEHGSWNRSTKIGYRLEWVQLEVNEVARKEIFAEGWLQENEAWGRPVDVLVMPDGALLVSDDMAGVVYRISYDQP	not soluble
GPGSMADFPKLARIKLDDENMEKIHCAARKGQTEEVKRLVEQGIDPAIPNRFGCTALHLACKHGQIETAKYLSSICDVHGAWHGQRPLHLAVLSNKEVLVEALVEGARERGRNVEIMLNECDDVSVDDIGEHQKHTDGQTALHWCVALGDNYLPMLRLLIRLGASPTAKNKENVTSMMYAMEFKNEAAMEEMVKGVKPQQLRLDYQDKEGRTHLHYAILHNRQDYAMRFIEMGHDPQMEDDNHETPLFLALRAAMPDLLTYLLQNVDSFSVQQAPFHNGSVMVAERIQWLEFATDEQARTECIRLFQKRLDEVSFRPEETEKKRAKPTVKKMKLAPSAPLRSRSIGNASALRSRSIGGRISGK	soluble
MGSDKIHHHHHHMEAADASRSNGSSPEARDARSPSGPSGSLENGTKADGKDAKTTNGHGGEAAEGKSLGSALKPGEGRSALFAGNEWRRPIIQFVESGDDKNSNYFSMDSMEGKRSPYAGLQLGAAKKPPVTFAEKGELRKSIFSESRKPTVSIMEPGETRRNSYPRADTGLFSRSKSGSEEVLCDSCIGNKQKAVKSCLVCQASFCELHLKPHLEGAAFRDHQLLEPIRDFEARKCPVHGKTMELFCQTDQTCICYLCMFQEHKNHSTVTVEEAKAEKETELSLQKEQLQLKIIEIEDEAEKWQKEKDRIKSFTTNEKAILEQNFRDLVRDLEKQKEEVRAALEQREQDAVDQVKVIMDALDERAKVLHEDKQTREQLHSISDSVLFLQEFGALMSNYSLPPPLPTYHVLLEGEGLGQSLGNFKDDLLNVCMRHVEKMCKADLSRNFIERNHMENGGDHRYVNNYTNSFGGEWSAPDTMKRYSMYLTPKGGVRTSYQPSSPGRFTKETTQKNFNNLYGTKGNYTSRVWEYSSSIQNSDNDLPVVQGSSSFSLKGYPSLMRSQSPKAQPQTWKSGKQTMLSHYRPFYVNKGNGIGSNEAP	not soluble
GMSEDHPLDRPVWNSLGGPQSELDVASGNLRRLDPAYGPFAAAAPGAEAGLASLLQGDADEIWLVEPEPVAPPPGTRVIRVAPLLQMIADGPVPSFDDPGIVALGETDVPEMTALALATEPGPWASGTWRYGQFYGVRIDGRLAAMAGERMRPAPNLAEVSGVCTWPEYRGRGLAARLIRKVIAGMAARGEVPYLHSYASNASAIRLYESLGFRARRAMTATLLGKST	soluble
MSGNYVINIGRQLGSGGKEIGEKLAARLGIDFYDKELINLASEESGLCKEFFEKADEKASQGIIGGLFGMRFPFISEGAMPCTNCLSNDALFKVQSDVIRRLAAEKSCVFVGRCADYILREHPRCANVFISATKEDRIARLCQMHRIDEEAAEEMIEKADKRRSEYYNYYSYKTWGAAATYHLCVDSSSLGIEETVRFVEEFVAKKLQIGM	not soluble
MLPDADSKDQLVTIIQSVKPPTVPPHRSHDPANNLKRTDPYQFGSRYLEEGDDVFEFNAWDHVEPDDEFKAFAEVQYAKQRESPVSDFDKQRFNKDPAKWWNLFYKNNTSNFFKDRKWLRQEFPVLAEVTQKGAGRKVVLEVGAGAGNTAFPLITHNKNEELMVHACDFSKTAVQVMRESEHYNPKFISADVWDVTAVPDEENNGLPPGLTEGSVDVVILIFIFSALAPSQWDQAIRNVYRVLKPGGLVLFRDYGRGDLAQVRFKKGRYMDENFYVRGDGTRVYFFEKEQLEKMWGTWTPEKGLQMAEDNSIVAESEGAFDVEKIGVDRRLIVNRQRKLKMYRCWIQAHYRKRETPAAVEAEKADS	not soluble
MKNPTVSIIIPVYNAEGTITRCLDSIIHQTYSSIEVIIIDDGSSDLSGSICDNYATKYNYIQVIHKKNEGVSIARQIGVKHSKGLYSIHVDADDYIDKCEIERMMDIALKFNADMVVCDYILEYKKNKFVYQKGMKDACDAFDFLKQIYNGIFIGTLWNKLIKTSLYNNVIFLKQCNYCEDVYILTQILSNNISINYINEALYHYCYDASSLTREINRNYIINRIIFIQEIEKILPLDLDLSRFKAGIKLSILKSGEYTYKEYINLYPNTNIPKELLNKRNLLFLSTANFFIGYQFLKILFNLKKRFKSFHL	not soluble
GSHMSKKILIVESDTALSATLRSALEGRGFTVDETTDGKGSVEQIRRDRPDLVVLAVDLSAGQNGYLICGKLKKDDDLKNVPIVIIGNPDGFAQHRKLKAHADEAVAKPVDADQLVERAGALIGFPE	soluble
MGSDKIHHHHHHEQTVKIGILSDMSGPYSDMGGPGSVAAAQLAIDECLAKECKGMKIELLSIDHQNKPDIGVQKAREWADVNKVNAIADLTNSAVALGVQKLTLDHDFVAMYSGPATTKLTNEDCSATGFHWMFDTYALAAGSAQAITKMGGKSWYFLTVDYAFGHSLEADSMAMVKQLGGTVAGSVRHPLNTADMSSFLLQAQSSKAQVVALANGAADTINAIKTAREFGIVQGGQQVVPLLIFLTDIRSLGLEIAQGLTFTEGFYWDQDDQARAFAARFQKAFKDRKPTMVQAGTYSSVLHYLHAVAAAKTTEAKAVSAKMREMPISDAVMRNAAIRPDGRVIHDMLLVKVKSPAESKGDWDFYTIQATIPAAEAFKPLANSACPTVKK	not soluble
MDYDQQPIMYDEVELLIQAVDQQPHPLLRLRDKAIIQLGLQGGFRRSELANLKVHYLSFMRDKLKVRLPFSKSNQQGLREWKSLPDSEPFAAYHAVKSWLNESQITDGHLFRSISRDGKTLRPYHVNDNSKPKSTFSRNSGFLNGDDIYRIIKQYCLKAGLPAQYYGAHSLRSGCVTQLHENNKDILYIMARTGHTDPRSLRHYLKPKEDLEHHHHHH	not soluble
MNSLILGAARRFVGLHLRVSVNLLQNESFSSYSFSSASAADVSPKGETFKSSSFLDSLRLATKLTDKGNSDSVLDLLRSYGFTDSQISSIIRSDSRVLIDNDATSLGSKLQFLQSRGASSSELTEVVSTVPKILGKREGKSLSRYYDFIKVIIEADKSSKYEKISHSLAQGNKIRNILVLRELGVPQKRLLLLLISKSQPVCGKEKFDASLKKVVEMGFDPTTSTFVHALHMLYQMSDKTIEEKIRVYRSVGFSVDDVWAMFKKWPRSLTHSEKKVANSIETFLGLGFSRDVFMMMFKRFPPCIGYSTEAVKKKTEFLVKEMNWPVKAVASIPQVLGYSLEKRTVPRCNVIKVLMSKGLLESELPPMSSVLTSTSESFLNLYVSKHDDKQLVAELMAIFTGNRVSLTDQKARLEQ	soluble
MNIKFKPVEPADRSAITTITFSSVARICDLAFSNLYCWSFVYGTSWAIVEGCLIIRFKPKSRSHPVYLFPVGADPEQVVAAAHRLKAEVVHEDYPLIFMGVTPDIHRCIEEHCSAEYYFIEDEAYCDYIYERESLATLSGKKLQAKRNHINKFVSLYPDYTYDPVKDSDAEECLMLAHLWLDSRGDQDGRELEVEMVERAFRHRQELGLSGGVLRVGGRVVAFCLGSPINTDTFGVHIEKADAMVEGAFAMINREFARSIPDTFRYINREEDLGLPGLRQAKLSYRPAILLPKQTAILRRDHDRIQA	not soluble
MGSDKIHHHHHHMRQPDHDDERAQCFAGFAPESIAHYLEHVWLGTPNPVEEPALADDRTASLAVIPVSELAGRRTELLDAMVTLYGGERETHARALLSQWTKYYFGFTATAGFVAAALLRRPLAMSPDNTHIVLRDGLPIAAYFARDALQPVECDPARRYAPLVEHLNAVIEMLCTMTRIAPRVLWSNAGNLLDYLFEQCAPQFDLSEDIAWLFGPLAANGEANPLRLPVRQAKPRAASLPNPFSARRVCCVRYEIPGETQLCGRCPLLLTMSDAEIALQAASQ	not soluble
MQGFQPPAEKDAIEFAKKHRKEFEKVGEQFFKDNFGLKVKATNVVGKDDGIEVYVHCDDHGIVFNASLPLYKDAIHQKGSMRSNDNGDDMSMMVGTVLSGFEYRAQKEKYDNLYKFFKENEKKYQYTGFTKEAINKTQNVGYKNEYFYITYSSRSLKEYRKYYEPLIQKNDKEFKEGMERARKEVNYAADTDAVATLFSTKKNFTNDNTEDDVIELSDKLYNLKNKPDKSTITIQIGKPTINTKKAFYDDNRPIEYGVHSKGELEHHHHHH	soluble
SNAMAVETLYRSTRDLETTFVDRKLADAHDQMLELAELLTDVLIKNVPGLSEKHAEDASIYMAKNRAVFAAAFKNNATALSELSEPAESEG	soluble
MGSDKIHHHHHHMTMDKLLTVCGLSLEVARTGQQVVKSVSFDLAPGEIFGIVGESGSGKTLATRALISLLPPTIKVADGSVSYKGRDVLKMKENELRHLRGAEIGVVFQEPMTSLNPSMTIGRQLEEGLILHTKASAQERRSLILDMLKRVGIRDPEGALSSYPHEFSGGMRQRIMLASVMLLKPALLIADEPTTALDAVIQRDVMELMVELTRAEGTAILLISHDLPMVARYTSRIVVMEKGAIVEKGRTEDLLKAPQHPYTKKLLSSLPFRGRPRQIDLTSVPMISARDIIVDYAGRKSLFRKNKPKRALHGVSIDIHEGEVVALVGGSGSGKTTLGRTIAGLVTESEGRIQFQGRPRTENWTDYRLNCQMVFQDPYSSLDPRMTIEALVEEALRPVPGLDGKAKRKRTLETLEEVGLGVDYAGRYPHELSGGQRQRVAIARAIARRPRFLIADEPVSALDVTVRAQVLDLFSDLQKRYGFSCLFISHDLGVVEQVADRVVVMQDGRIIEEGDRDTIFDSPKEAYTRRLLSAIPALDQNEKGGVTLKWRLEN	not soluble
MNYLQYYPTDVINGEGTRCTLFVSGCTHACKGCYNQKSWSFSAGVLFDDVMEQQIINDLKDTRIKRQGLTLSGGDPLHPLNVETLLPFVQRVKRECPDKDIWVWTGYKLDELDKQQRAMLPYIDVLIDGKFIQEQADPSLVWRGSANQIIHRFKLLEHHHHHH	soluble
